Data as given in the nanobody polyreactivity screen of Harvey et al. (2022).

Test: yeast display, Sf9 membrane polyspecificity reagent, FACS + sequencing; frameworks hold sequencing errors
In short: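 Polyreactivity labels are assigned by the sorting gate from which each nanobody was recovered. The gates were low and high (top ~1%), set on anti-HA fluorescence for expression and streptavidin fluorescence for reagent binding. Before sorting, galactose-induced (36–48 hours) yeast display cells were stained for 1 hour at 4 °C with 10% biotinylated, detergent-solubilized Sf9 membrane reagent.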

Sequence	polyreactivity (PSR sort gate)
QVKLVESAGCLVQAGGSLRLSCAASGRIFRRYAMGWYRQSTGKESELVAAISSRGGLTYYADSVKGRFTISRDNAKNTVYLLMNSLKTEDTAVYYCAAYYFVTETYGPYEYWGQGTQVTVSS	high polyreactivity
QVQLVESGGGLVQAGGSLRLSCDASGRTLDVNARGWYRQAPGKERELVAAISYSGGITYYADSVKGRFTISRDNAKNTVYLQMNRLKPEDTAVYYCAVVGGYPSYTVDYWGKGTQVTVSS	low polyreactivity
QVQLVESGGGLVQAGGSLRLSCAASGFTFYTNAMGWYRQAPGKERELVAAITKSDGSTYYADSVKGRFTISRDNAKNTVYLQMNSLKPEDTAVYYCATERRYPYYGGIVIYDYWGQGTQVTVSS	low polyreactivity
QVHLVQSGGGIDQAGGSLRLSCAASGSTYVVNTMGWYRQAPGKDRELVAANTQSGGSTFYADSVKGRFTISRDNAKNTVYLHMTSLKAEDTAVYYCNAGDFEGAVVVFIQHGGYYWGQGTQVTVSS	low polyreactivity
QDQLVESGGGLVQAGGSLRLSCAASGSTFNIYAMGWYRQAHGTVRELVARITSGGSTNYADSVKGRFTISRDNAKNTVYLQMKSLKPEDTAVYYCAARLKWGLPTYDYWGQGTQVTVSS	high polyreactivity
QVQLVESGGGLVQAGGSLRLSCAASGSIFWPYAMGWYRQAPGKDRELVATITWTGGSTYYADSVKGRFTISRDNAKNTVYLQMNSLKPEDTAVYYCAAAGYYGYGYDYWGQGTQVTVSS	low polyreactivity
QVQLVESGGGLVQAGGSLRLSCAACGSIFYLNAMGWYRQAPGKERELVAAITNGGSTYADSVKGRFTISRDNAKNTVYLQMNSLKPEDTAVYYCATRSWELGDYWGQGTQVTVSS	low polyreactivity
QVQLVESGGGLVHAGVSLRLSCAASGIIFAHYAKGWYRQAPGKERELVAAISSSGATTYYADSVKGRFTISRDNAKNTVYLQMNSLKPEDTAVYYCNTETYHVRRLFDYWGQGTQVTVSS	low polyreactivity
QVQLVDSGGGLVQAGGSLRLSCAASGRTFRTNAMGWYRQAPGKERELVAAISSNGGTTYYADSVKGRFTISRDNAKNTVYLQMNSLKPEDTAVYYCNIESQYLWPEFDYWGQGTQVTVSS	low polyreactivity
QVQLVESGGGLVQAGGSLRLSCAASGITFVRNAMGWYRQAPGKEREFVAAISGSGVSTYADSVKGRFTISRDNAKNTVYLQMNSLNPEDTAVYYCARDFPWSYAWYDYWGQGTQVTVSS	low polyreactivity
QVQLVESGGGLVQAGGSLRLSCAASGLTFPSYAMGWYRQAPGKERELVAAISRRSGSTYYADSVKGRFTISRDNAKNTVYLQMNSLKPEDTAVYYCTTRRGERGYWGQGTQVTVSS	high polyreactivity
QVQLVESGGGLVQAGGSLRLSCAASGRIFKLYAMGWYRQAPGKERELVAAITRRGGSTSYADSVKGRFTISRDNAKNTVYLQMNSLKPEDTAVYYCNARSSETWHGDYWGQGTQVTVSS	high polyreactivity
QVQLVESGGGLVKAGGSLRLSCDASGRIFKYYAMGWYRPAPGKEWELVAAISSVGYTNYADSVKGRFTISRDNAKNTVYLQLNSLKPEDTAVYYCAAPYQHYDVNYDSWGQGTQVTVSS	low polyreactivity
QVQLVESVGGIVQAGGSLRLSCAASGSTRYNAMGWYIQAPGKERELVAYIRGNAGSTYYADSVKGRFTISRDNAKNTVYLQMNSLKPEDTAVYYCNARYWYRYGGYKPVGGYYWGQGTQVTVSS	high polyreactivity
QVQVVESGGGLVQAGGSLRLSCAASGRTFGGYDMGWYRQAPGKERELVAAISWSGGNTYYADSVKGRFTISRDNAKNTVYLQMNSLKPEDTAVYYCAAGHYVYWYRYQLGRYNYWGQGTQVTVSS	high polyreactivity
QVQLVESGGGLVQAGGSLRLSCSASGRTFLYDMGWYTHATGKELELVAAISRGGSTSYADSVKGRFTISRDNAKNTVYLQMNSLKPEDTAVYYCATRGLVGYYSYYYWGQGTQVTVSS	high polyreactivity

Sequence	polyreactivity (PSR sort gate)
QVQLVESGGGLVQAGGSLRLSCAASGSTFGGNAMGWYRQAPGKERELVAAISSSGGSTYYADSVKGRFTISRDNAKNTVYLLMNSLKPEDTAVYYCNADDGYGQVHSISTYEMDYWGQGTQVTVSS	low polyreactivity
QVQLVESGGGLVQAGGSLRLSCAASGSTFPTYVMGWYRQAPGKERELVASINSDTGTYYADSVKGRFTISRDNAQNTVYLQMNSLKPEDTAVYYCNARQAYYFYPFEYDYWGQGTQVTVSS	low polyreactivity
QVQLEESGGGLVQAGGSLRLSCAASGRIFWVNVMGWYRQAPGKERELVAAITRGASTYADSVKGRFTISRDNAKNTVYLQLNSLKPEDTAVYYCAVGISDFQYYDYVYWGQGTHVTVSS	high polyreactivity
QVQLVESGGGLVQAGGSLRLSCAASGFIFGYYAMGWYRQAPAKERELVAAINWSGGSTYYADSVKGRFTISRDNAKNTVYLQMNSLKPEDTAVYYCAARYPYRRGGQDSYYYWGQGTQVTVSS	high polyreactivity
QVQLVESGGGLVQAGGSLSLSCAASGRTFAPYAMGWYRQAPGKEREFVAGITWSSSSTYADSVKGRFTISRDNAKITVYFQMNSLKPEDPAVYYCAASHAKGGNRHYYWGQGTQVTVSS	high polyreactivity
QVQLVESGGGLVQAGGSLRISCAASGLIFADYTMGWYRQAPGKERDLVAVITDGDSTYYADSVKGRFTISRDNAKNTVYLQMNSLKPEDTAVYYCAAELDGSNYTLDYWGQGTQVTVST	low polyreactivity
QVQLVESGGGLVQAGGSLRLSCAASGSIFVSYAMGWYRQAPGKERELVAAITVSGGSTYYADSVKGRFTISRDNAKNTVYLQMNSLKPEDTAVYYCAADSWDDWVVEFYYWGQGTQVTVSS	low polyreactivity
QVQLVESGGGLVQAGGSLRLSCAASGSIFPFYAMGWYRQAPGKERELVATISWSGGRTYYADSVKGRFTISRDNAKYTVDLQMNTLKPEDTAVYYCAAGSYHYPNAYYYWGQGTQVTVSS	high polyreactivity
QVQLVESGGGLVQAGGSLRLSSAASGSIFVNYVMGWYRQAPGKERELVADISSGGSTYYADSVKGRFTISRDNAKNTVYLQMNSLKPEDTAVYYCNAVYPYTYDYWGQGTQVTVSS	low polyreactivity
QVQLVESGGGLVQAGGSLRLSCAASGSIFVKNAMGWYRQAPGKERELVAAISRSGGSTYYADSVKGRFTISRDNAKYTVYLQMNSLKPEDTAVYYCNAYGSYWDFDEWGQGTQVTVSS	high polyreactivity
QVQLVESGGGLVQAGGSLRLSCAASGRTFGYNAMGWYRQAPGKERELVAVITSSGGRTYADSVKGRFTISRDNAKNTVYLQMNSLKPEDTAVYYCATRTRLAQYSRGRYRYDYWGQGTQVTVSS	high polyreactivity
QVQLVESGGGLVQAGGSLRLSCAASGFTFYLYAMGWYRQAPGKERELVAAITYSAGSTYYADSVKGRFTISRDNAKNTVYLQMNSLKPEDTAVYYCAKRGHYRAWGGGGYWGQGTQVTVSS	low polyreactivity
QVQLVESGGGLVQAGGSLRLSCAASGSTFYYYAMGWYRQAPGKEREFVAAISGGDGTTSYADSVKGRFTISRDNAKNTVYLQMNSLKPEDTAVYYCATPYTSYLYGYDYWGQGTQVTVSS	low polyreactivity
QVQLVESGGGLVQAGGSLRLSCAASGGIFYHNAMGWYRQAPGKERELVAAISGRGGRTYYADSVKGRFTISRDNAKNTVYLQMNSLKPEDTAVYYCAAGGQARHDYWGQGTQVTVSS	low polyreactivity
QVHLVESGVGLVQAGGSLRLSCAAYGYTFTRNAKGWSRQAPGKERELVAAISKRGGTTYYADSVKGRFTISRDNEKYSVYLQMNSLKPEDTAVYYCAKDGGITGGYWGQGTQVTVSS	high polyreactivity
QVQLVESGGGLVQAGGSLRLSCAASGNTFYKNTMGWYRQAPWKERELVAAISQRGTRTYYADSVKGRFTISRDNAKNTVYLQMNSLKPEDTAVYYCATDLSQVGFDYWGQGTQVTVSS	high polyreactivity
